The values below come from US20240228612A1 (SICHUAN KELUN BIOTECH BIOPHARMACEUTICAL, published 2024).

Test [1] addresses T1, human Nectin-4 protein (human, UniProt Q96NY8 32-349).
T1 construct: Purified protein used for coating in ELISA and as analyte in Octet; also called human Nectin-4 antigen
T1 sequence (looked up): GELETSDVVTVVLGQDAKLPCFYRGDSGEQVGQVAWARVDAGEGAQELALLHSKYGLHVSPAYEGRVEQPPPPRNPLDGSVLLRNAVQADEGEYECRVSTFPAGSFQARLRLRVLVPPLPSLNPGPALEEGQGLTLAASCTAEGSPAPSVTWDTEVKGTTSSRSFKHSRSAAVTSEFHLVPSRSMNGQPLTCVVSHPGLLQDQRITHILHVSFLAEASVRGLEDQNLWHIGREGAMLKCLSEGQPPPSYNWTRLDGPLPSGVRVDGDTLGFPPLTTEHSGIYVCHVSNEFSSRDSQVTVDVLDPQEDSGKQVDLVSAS
Put plainly: competitive ELISA, coated Nectin-4; competitor biotin-labeled Nectin-1-hFc. On the procedure: Human Nectin-4 is linked to another Nectin-4 molecule or Nectin-1 molecule through the IgV domain. Because 31HZ, 56HZ and 74HZ all bind to the IgV domain of Nectin-4, the competitive activity of the three antibodies was detected by competitive ELISA. The specific steps were as follows: Nectin-4 protein was diluted to 2 μg/mL with CBS coating solution, 100 μL per well, and incubated at 37° C. for 2 hours; washing was performed once with 300 μL PBST, PBS (2% BSA) was then added, 100 μL per well, and incubation was performed at 37° C. for 2 hours; biotin-labeled Nectin-1-hFc was diluted with PBS (2% BSA) to 20 μg/mL; the antibody to be detected was diluted with PBS (2% BSA), wherein the dilution of 31HZ and 74HZ was started from 3.73 μg/mL, 3-fold dilution, and 9 concentration points, the dilution of 56HZ was started from 1.25 μg/mL, 2-fold dilution, and 10 concentration points; the above two diluted solutions were mixed well in equal volumes, and then added to the corresponding well at 100 μL/well, and incubation was performed at room temperature for 2 hours; washing was performed three times with 300 μL PBST; HRP-streptavidin was diluted with PBS (2% BSA) at a ratio of […], and added to the corresponding well at 100 μL/well, incubation was performed at room temperature for 1 hour; washing was performed five times with 300 μL of PBST; 100 μL of TMB was added to the corresponding well, color development was performed at room temperature for 10 minutes, and then terminated by adding 50 μL of 2N H₂SO₄, and a microplate reader was used for collecting readings at 450 nm.
(In general: In an ELISA, binding on a coated surface is turned into a signal by an enzyme label.)

Test [2] concerns the target T1, human Nectin-4 protein. Put plainly: ELISA, coated antigen. The source says:
(§1) The affinity of anti-human Nectin-4 humanized monoclonal antibodies to Nectin-4 protein of different species was detected by ELISA.

The target in test [3] is T2, cynomolgus monkey Nectin-4 protein (cynomolgus monkey).
T2 construct: also called cynomolgus monkey Nectin-4 antigen
Kind of test: ELISA, coated antigen.
Source text: as §1

The target of test [4] is T1, human Nectin-4 protein. Put plainly: ELISA, coated human Nectin-4, anti-human-HRP.
Test [5] has as its target T1, human Nectin-4 protein. Put plainly: ELISA, coated human Nectin-4, anti-human-HRP. This is another data set of the same source.
The target in test [6] is T1, human Nectin-4 protein. Put plainly: BLI (Octet Fortebio), antibody on ProA sensor, Nectin-4 as analyte, 1:1 global fit. On the procedure:
(§2) The dynamic affinity of anti-human Nectin-4 humanized monoclonal antibodies was detected using Octet Fortebio®. The main steps comprised: firstly, the anti-human Nectin-4 humanized monoclonal antibody (concentration of 5 μg/mL) was immobilized on ProA sensor, then subjected to binding reaction with human or cynomolgus monkey Nectin-4 (gradiently diluted to 400 nM, 200 nM, 100 nM, 50 nM, 25 nM, 12.5 nM, 6.25 nM, 0 nM), and the anchored product in the solid phase obtained through fully reaction was subjected to dissociation reaction in PBST buffer. After the completion of the experiment, the results were analyzed by using Data Analysis 11.0 software at 1:1 mode to perform global fitting, thereby obtaining the affinity constant of antibody to antigen.
Background: BLI is a label-free optical method that tracks binding on a fibre tip over time.

Test [7] has as its target T2, cynomolgus monkey Nectin-4 protein. The description is as above. On the procedure: as §2
The target of test [8] is T3, human Nectin-4 on cell membrane surface (human, UniProt Q96NY8 32-510).
T3 construct: whole, on cells; also called A549-Nectin-4; T24-Nectin-4
T3 sequence (looked up): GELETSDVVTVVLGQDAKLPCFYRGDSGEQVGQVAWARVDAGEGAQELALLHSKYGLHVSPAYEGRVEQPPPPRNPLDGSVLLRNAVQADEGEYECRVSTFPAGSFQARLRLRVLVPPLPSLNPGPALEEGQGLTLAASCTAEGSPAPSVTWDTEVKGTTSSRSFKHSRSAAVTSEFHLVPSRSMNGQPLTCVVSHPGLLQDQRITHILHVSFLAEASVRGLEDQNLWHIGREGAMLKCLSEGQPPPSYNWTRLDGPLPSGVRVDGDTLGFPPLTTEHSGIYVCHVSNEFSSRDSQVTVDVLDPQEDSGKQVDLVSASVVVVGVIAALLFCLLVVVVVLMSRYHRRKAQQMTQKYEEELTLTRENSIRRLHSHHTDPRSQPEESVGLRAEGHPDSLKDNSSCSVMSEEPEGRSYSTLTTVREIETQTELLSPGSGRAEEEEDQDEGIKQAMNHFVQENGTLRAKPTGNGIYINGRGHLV
Kind of test: flow cytometry on T47D cells. On the procedure:
The specific steps were as follows: T47D cells were digested, resuspended by centrifugation, and washed twice with PBS; the cells were resuspended in PBS (containing 1% BSA), and spread into a 96-well tip-bottom plate at 3×10⁵ cells/well, with a volume of 50 μl per well; 50 μL of the antibody to be tested was added to each well, starting at a final concentration of […], 4-fold gradient dilution, a total of 10 concentration points; Human IgG was used as a negative control; after being mixed well, the resulting mixture was reacted in the dark at 4° C. for 1 hour; washing was performed 3 times with PBS, FITC-labeled anti-human Fc secondary antibody (brand: BioLegend, product number: 409322) was added, incubated at 4° C. for 0.5 hours in the dark; washing was performed 3 times with PBS, and detection was carried out using a flow cytometer (flow cytometer brand: Beckman, model: Cytoflex).
(A flow cytometer gives signals particle by particle.)

In test [9] the target is T2, cynomolgus monkey Nectin-4 protein. Put plainly: ELISA, coated cynomolgus monkey Nectin-4, anti-human-HRP.
The target in test [10] is T3, human Nectin-4 on cell membrane surface. Put plainly: flow cytometry on NCI-N87 cells.
Test [11] has as its target T2, cynomolgus monkey Nectin-4 protein. Kind of test: ELISA, coated cynomolgus monkey Nectin-4, anti-human-HRP. This is another data set of the same source.
Test [12] deals with T1, human Nectin-4 protein. Kind of test: ELISA, coated human Nectin-4, anti-human-HRP. The source holds these as a separate data set.
The target of test [13] is T1, human Nectin-4 protein. Kind of test: ELISA, coated human Nectin-4. The protocol: Human Nectin-4 (Sino Biological, Cat: 19771-H08H) was diluted to 1 μg/mL with carbonate (CBS) buffer, added to a 96-well plate at a volume of 100 μL/well, and placed at 4° C. for 16-20 h. The CBS buffer in the 96-well plate was discarded by pipetting, the plate was washed once with PBST (pH 7.4, PBS containing 0.05% Tween 20) buffer, added with 200 μL/well of skim milk powder (blocking solution) containing 2% PBST, incubated for 1 h at room temperature for blocking. The blocking solution was removed, and the plate was washed three times with PBST buffer. The anti-Nectin-4 mouse antibody to be tested was diluted with PBST/2% skim milk powder to an appropriate concentration, then added to the plate at a volume of 100 μL/well, and incubated at room temperature for 1.5 h. The reaction system was removed, and the plate was washed three times with PBST, and 50 μL/well of HRP-labeled goat anti-mouse IgG secondary antibody (purchased from the Jackson Laboratory) diluted with PBST/1% skim milk powder (dilution ratio 1:5000) was added, and incubated at room temperature for 1 h. After the plate was washed 3 times with PBST, 100 μL/well of TMB was added, and incubated at room temperature for 5-10 min for color development. The color development was stopped by adding 50 μL/well of 0.2 M sulfuric acid. Microplate reader was used to detect optical density (O.D.) at dual wavelengths 450/620 nm.

As usually defined, the IC50 is the concentration that gives 50% inhibition. Broadly, the EC50 is the concentration at which the effect is half-maximal. The term EC50 (read off the curve) denotes the concentration giving half of the maximal effect. The Kd is a measure of binding affinity in units of concentration.

Changes are numbered by the printed parent chain. Where two headings read alike, the source gives them in different places.

B1: Enfortumab (antibody, V domains shown)
VH: EVQLVESGGGLVQPGGSLRLSCAASGFTFSSYNMNWVRQAPGKGLEWVSYISSSSSTIYYADSVKGRFTISRDNAKNSLSLQMNSLRDEDTAVYYCARAYYYGMDVWGQGTTVTVSS
VL: DIQMTQSPSSVSASVGDRVTITCRASQGISGWLAWYQQKPGKAPKFLIYAASTLQSGVPSRFSGSGSGTDFTLTISSLQPEDFATYYCQQANSFPPTFGGGTKVEIKR
As for B1, the half-maximal inhibitory concentration (IC50) with human Nectin-4 protein [1] came to 27.1 ng/mL. Moreover, the EC50 with human Nectin-4 protein [2] worked out at 7.1 ng/mL; in test [3] it was 6 ng/mL; in test [8], 10.1 ng/mL; in test [10] it was 22.1 ng/mL. Besides, the “EC50 (read off the curve)” value in the test with human Nectin-4 protein [4] was roughly 9 ng/mL; with human Nectin-4 protein [5], roughly 7 ng/mL; in test [9], roughly 6 ng/mL; in test [11] it was roughly 7 ng/mL; with human Nectin-4 protein [12], roughly 5 ng/mL. The equilibrium dissociation constant (Kd) with human Nectin-4 protein [6] is 28300 pM; in test [7], 33600 pM.

B2: anti-human Nectin-4 murine monoclonal antibody 31# (antibody, V domains shown)
VH: EVQLQQPGADLVRPGASVKLSCKASGYTFTDYWMNWVKLRPGQGLEWIGMIHPSDSETRLNQKFKDKATLTVDKSSSTAYMQLSSPTSEDSAVYYCARWDFRIYYAMDYWGQGTSVTVSS
VL: DVVITQSPSSLAMSVGQKVTMSCKSSQSLLNTNSQKNYLAWYQQKPGQSPKLLVYFASTRESGVPDRFIGSGSGTDFTLTITSVQAEDLADYFCQQHYSTPLTFGAGTKLEIK
notes: Murine antibody purified by Protein A from hybridoma supernatant
Molecule B2 showed an EC50 with human Nectin-4 protein [13] of 54.9 pM.

B3: anti-human Nectin-4 murine monoclonal antibody 74# (antibody, V domains shown)
VH: EVQLQQPGAELVRPGASVKLSCKASGYTFINYWMNWVKQRPGQGLEWIGMIHPSDSATRLNQKFKDKATLTVDKSSSTAYMQLSSPTSEDSAVYYCARWGNFYTVNAWYYFDYWGHGTTLTVSS
VL: B2 VL with V2I, S28T, T32S, S34T, V54F, D76N, T82S
notes: as for B2
B3 returned an EC50 in the test with human Nectin-4 protein [13] of 69.4 pM.

B4: anti-human Nectin-4 murine monoclonal antibody 56# (antibody, V domains shown)
VH: QVQLKESGPGLVKPSQSLSLTCTVTGYSITSDYDWHWIRHFPGNMLEWMGYISFSGRTYYNPSLKSRISITHDTSKNHFFLRLNSVTTEDTATYYCARGNYDGFDYWGQGTTLTVSS
VL: DIQLTQSPAILSVSPGERVSFSCRASQNIGTSIHWYQHRTNGSPRLLIKFASESISGIPSRFSGSGSGTDFTLSINSVESEDIADYYCQQSKSWPTYTFGGGTKLEIK
notes: as for B2
B4 had an EC50 in the test with human Nectin-4 protein [13] of 36.3 pM.
